Measurements from the supplement of paper PMC7125110.
± gives the standard error. Variants at the floor of the assay were thinned out.

B1: glmS ribozyme (parent)
chain: AUAAAAGCGCCAGAACUACAGAAAUGUAGUUGACGAGGAGGAGGUUUAUCGAAUUUUCGGCGGAUGCCUCCAAA

Key:
Conditions in all cases: with glucosamine-6-phosphate
glucosamine-6-phosphate [1] = variants of: B1; assay: self-cleavage kobs at 640 uM GlcN6P; higher = faster cleavage; RNA array
In short: (§1)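 Barcoded ribozyme variants were transcribed in situ on sequenced MiSeq chips by E. coli RNA polymerase. At 37 °C, a hybridised Cy3 probe tracked them while glucosamine-6-phosphate (40 μM to 10 mM) in HEPES/KCl/Mg(OAc)2 buffer flowed in and tiles were imaged over ~14 h. Per-tile medians of signals normalised to baseline and to non-cleaving reference variants were fit to one- or two-exponential decays, giving kobs. kcat and KM came from weighted Michaelis–Menten fits across concentrations.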

glucosamine-6-phosphate [2] = variants of: B1; assay: self-cleavage kobs at 2500 uM GlcN6P; higher = faster cleavage; RNA array
In short: as §1

glucosamine-6-phosphate [3] = variants of: B1; assay: self-cleavage kobs at 10000 uM GlcN6P; higher = faster cleavage; RNA array
In short: as §1

Row | Variant | self-cleavage kobs at 640 uM GlcN6P (glucosamine-6-phosphate [1]) [s⁻¹] | self-cleavage kobs at 2500 uM GlcN6P (glucosamine-6-phosphate [2]) [s⁻¹] | self-cleavage kobs at 10000 uM GlcN6P (glucosamine-6-phosphate [3]) [s⁻¹]
1 | G9C C67G C68U | < 1e-05 | < 1e-05 | –
2 | C10U U30A A33U | < 1e-05 | – | –
3 | C11G C34U U69G | 0.000508 ± 0.00017 | – | –
4 | G13A U57A A64C C68A | 0.000763 ± 0.00019 | – | –
5 | C11G U45G C71U | < 1e-05 | < 1e-05 | –
6 | C11U A33C U55G C58U | < 1e-05 | – | –
7 | A12C A14G G60U | < 1e-05 | – | –
8 | C10A G13C C61G G66A C70A | 0.000102 ± 4.5e-05 | – | –
9 | G13C A33C | < 1e-05 | < 1e-05 | –
10 | C11U U30A C34U A36G U69A | 0.000685 ± 0.00016 | – | –
11 | C10A U46C U47A G59A | < 1e-05 | < 1e-05 | –
12 | G13C A48C C68G | < 1e-05 | – | –
13 | C11G G44U C50G G62C | < 1e-05 | < 1e-05 | –
14 | G9U G32C A33G A39G A48U C61U G63U A64U | < 1e-05 | < 1e-05 | –
15 | C11U C61G C67A | 0.000183 ± 5.6e-05 | 0.000446 ± 0.00017 | –
16 | G9A G41A A53U | < 1e-05 | < 1e-05 | –
17 | C11U C16U C71G | 6.83e-05 ± 1.8e-05 | 0.000127 ± 3.7e-05 | –
18 | G9A U55C | < 1e-05 | < 1e-05 | –
19 | G9C A14G G37U G62C C71A | < 1e-05 | < 1e-05 | –
20 | C10A A12C G43A C67U C70G | < 1e-05 | < 1e-05 | –
21 | C11U C50U G60C | < 1e-05 | – | –
22 | C10U G13A U45G U49C | < 1e-05 | – | –
23 | G9U G41A A42U | < 1e-05 | < 1e-05 | –

Row | Variant | self-cleavage kobs at 640 uM GlcN6P (glucosamine-6-phosphate [1]) [s⁻¹] | self-cleavage kobs at 2500 uM GlcN6P (glucosamine-6-phosphate [2]) [s⁻¹] | self-cleavage kobs at 10000 uM GlcN6P (glucosamine-6-phosphate [3]) [s⁻¹]
24 | C11A A33G A48C C67U | < 1e-05 | < 1e-05 | –
25 | G13U A14G G37A U45A | 9.84e-05 ± 2.1e-05 | 0.000193 ± 3.6e-05 | –
26 | G9C A12C C19A G51U U54G G63C C70G | < 1e-05 | < 1e-05 | –
27 | G13C C34G G35C A52C | < 1e-05 | < 1e-05 | –
28 | A12U G32A G41C G62U C68U | < 1e-05 | < 1e-05 | –
29 | G13C G29U C71G | < 1e-05 | – | –
30 | A12C C67A C68A | 7.04e-05 ± 1.6e-05 | 4.41e-05 ± 2.1e-05 | –
31 | A12U G59C U69A | 0.00122 ± 0.00048 | – | –
32 | C11U G41U A48G | < 1e-05 | – | –
33 | C11A A42C U46C C71U | < 1e-05 | – | –
34 | C11A U30G U65C | < 1e-05 | < 1e-05 | –
35 | A12C G38U C67U | < 1e-05 | – | –
36 | A12C A33U A52G U54G | < 1e-05 | – | –
37 | G9U C34U U55C G60C G63A | < 1e-05 | – | –
38 | G9U U54C | < 1e-05 | – | –
39 | C10U G32A G59A G60A | < 1e-05 | – | –
40 | G13C G37U G60U | < 1e-05 | – | –
41 | A12G G44U C70G | < 1e-05 | < 1e-05 | –
42 | C11A U30G U54G | 4.96e-05 ± 1.4e-05 | 0.000114 ± 2.1e-05 | –
43 | G9C G40C U49G | < 1e-05 | – | < 1e-05
44 | G13C G29C | 2.89e-05 ± 9.5e-06 | 3.23e-05 ± 1.2e-05 | 9.98e-05 ± 2.1e-05
45 | C11G A14U A52U C68G | 0.000115 ± 3.6e-05 | – | –
46 | G13C A14C G32U U69C | 8.31e-05 ± 2.1e-05 | 7.03e-05 ± 2e-05 | –

Row | Variant | self-cleavage kobs at 640 uM GlcN6P (glucosamine-6-phosphate [1]) [s⁻¹] | self-cleavage kobs at 2500 uM GlcN6P (glucosamine-6-phosphate [2]) [s⁻¹] | self-cleavage kobs at 10000 uM GlcN6P (glucosamine-6-phosphate [3]) [s⁻¹]
47 | C11G G29C G59C | < 1e-05 | – | –
48 | G13C U46G A53U U54A | < 1e-05 | – | –
49 | G9C C50U U55G | < 1e-05 | < 1e-05 | –
50 | C10G A14U | < 1e-05 | – | < 1e-05
51 | C11U G13A A48G U56C | < 1e-05 | – | –
52 | C10G C11G G32C G59C C67G | < 1e-05 | – | –
53 | C11A C50G C61A | 0.000272 ± 7.9e-05 | 0.000188 ± 3.7e-05 | –
54 | G9A G44U A52G U65G | < 1e-05 | < 1e-05 | –
55 | C10A A42G U47C C50G C70U | < 1e-05 | – | –
56 | G13C U55A U69A | 0.00022 ± 7e-05 | – | –
57 | G13C G40C A42C | < 1e-05 | < 1e-05 | –
58 | A12C U30C U57G U65C | < 1e-05 | – | –
59 | G9C C10U U55A | < 1e-05 | < 1e-05 | –
60 | C11G C58G C70U | 8.61e-05 ± 2.4e-05 | – | –
61 | C10U A15U G35A C61G | < 1e-05 | < 1e-05 | –
62 | A12C G66U C70G | 7.67e-05 ± 2.5e-05 | – | –
63 | G13C U31G C61U U69C | < 1e-05 | – | –
64 | G13A U49A U69A | 0.00011 ± 3.1e-05 | – | –
65 | C10A C16A A36C A42G U46A U54C U56G G63U | < 1e-05 | – | < 1e-05
66 | A12G A15G G35A C68G | < 1e-05 | – | –
67 | A12G G43C A53G | < 1e-05 | < 1e-05 | –
